The record followed here is the supplement of paper PMC12636428.

In this data set the test system is Saccharomyces cerevisiae. Description: transcriptional activation domain activity (GFP:mCherry ratio, weighted mean of sorted bins, harmonized to initial dataset scale) (arbitrary fluorescence ratio units); higher = stronger transcriptional activation. The note with it: beta-estradiol 1 µM; induction time 4 h. In outline: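 After a 1:5 dilution into SC with 1 uM beta-estradiol and 4 hours at 30 °C, yeast diploids carrying a GFP reporter and URA3-integrated barcoded tiles were sorted into 8 bins by GFP:mCherry ratio. The tiles were fused to an estradiol-inducible synthetic transcription factor. Barcodes were sequenced, tiles below 50 reads were discarded, and activation activity was taken as the read-weighted mean of bin median fluorescence, averaged across barcodes and linearly mapped onto the initial dataset scale.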

Take “AQLHHRTWLIHWSLFPFFNFEPAKETLTEMFFSPAYINTIQTNCPWILRYLAA”: the “transcriptional activation domain activity” value was determined as 56700.
With “PLVLPVTAFYFYMDSFLKKYLLLYVFITKYESGGMFWRVVFNRFLFLTLLGNI” the figure was 60500.
Next, “SSSSKKQNQSADGERKKPKKTDGAEKGESVRRKSDSGGKSVKSEEKTTKGIQK”: 28800; “MRRVARSTKGGKVRSLAALVVVGNGNGVGGFGEGRAVDSAQAVAKATAAATKN”: 32500; “KMEESKKRGTKRKSALASDSEEEEEVKPKPIAKPAKPAAKAESSVHVRKGVVL”: 17700.
Regarding “GDKNKRKRGDSAASEAQAGQQEAAKEVQQKKKRVRSKGKAAAPPVAQASAGAS”, the “transcriptional activation domain activity” value was 45300.
Take “RRRKSNSTKPGNAGSKPAKKNKGANSNERERESKEVDEDEDEGNGGGEGEGEE”: the “transcriptional activation domain activity” value is 8620.
With “MGLWARFICFVIPLFFHYFPLFSFSFLLNIFPHYIYFFPTFYKSGPLFLCFFM”, the “transcriptional activation domain activity” value worked out at 50500.
Next, “YRALHQRIWDEGLYECNYRAYAIECTRYVLLFTLMWVCLYFQRYFLGAFFLGA”: 83700; “MVGRGCAVQVMIYPLFFVPGFLGFGFLVCYHFPFFMSLLWVLAWLRFWLVISS”: 64400.
With “TSSPQKGAEKEEAAEAEPEKEKEAEAEAPASPQKRITPMKRGRGRPKRGGAAV” the figure was 27500; with “MLLSLGPVLFSFGHPPLIHLCLVPHPVFFSYPFSLLFISPISSLDYFCFSFPF”, 45400; with “CSNIGAQKNQCEFVQLNCHGFNALYLELFYCSKLWKPIIIAILLSCLLMLFGA”, 42200.
Next, “KKASSSAVGEGKKKSASKPRTSSAGGASVDGQPKKPKQSKKKAASGSKGGAGS”: 28500; “GESSSKPPKKRGRPRKNPLPPAEPSGADEGETSAPAAEPNPPKRKRGRPRKDS”: 34600.
As for “MYFAYFYLLPEMSSLSFFPFLSVYVFFIFFSSLICFFFFLSMGFLCLFTFLLV”, the “transcriptional activation domain activity” value was determined as 45200.
Next, “GGGGAGEEDAKGKARADEDVRESSRAKSTSKRKTSAAASGSESDSASSSSSYS”: 14900.
With “TPLLLFFWCLCWFLSRSWYVYCFCYLNDWYNKVMMLWNLFHHHRFLLLYTRGL” the figure was 35200; with “PAGDNKAPRKEGARANNRPRDNDAPRGPRYDRTPRDGDAASRAPRGARAPRGA”, 41700.
In the case of “MSVSSPEDVTSEASGPAATAPAHEPLACVNCRSRKLKCDRQKPVCSRCAKAGG”, the “transcriptional activation domain activity” value turned out to be 46300.
With “YRISLAILQLCKDHLLQSCPTNSEILAFLLHIPHDYLTADVLLDTAFHIKLSK” the figure was 54000; with “VDFVKHLISCFSVVGEDNFACTLKGFGWMYLTHVYFFFNVFVALNLQLIILLS”, 60000.
For the sequence “KMVHRPLLWYFTVFLVDMYTALRLFRLGFRHYAPRTQTRSWFRVFPPRPFTWV”, the “transcriptional activation domain activity” value amounted to 71700.
With “QGASAGVSPIFKKEKYTLKWKRVKEFNLIFVAVYQSLLHLGWIDRLLENISTI” the figure was 67900; with “QPSQVPQEDQPEHEPERKRRPGRPRGSKNRKPRADSAKQPQQQQQQQQQPHPQ”, 59500.
Next, “GACLQDIAMVGFIDTNSIGCVASSVVLYLSLVFIIGVVAIRFFMAVMFQWFFS”: 35600; “MLLALRMFEELKLFFLSFVFLSQFFFFIYLFLVHYCKWRMVTLPYSVFTFFLV”: 44000; “PVKADEPAAPVEAVKETETAAPVEDAAAPEVAAEAPKEEVKEEKVRSLRTAIS”: 27300.
Next, “MIFMLDANPSYGTLFILLPYLLSLIIPVLITSVLLSDIFFFFISYCMLCLSCC”: 52200.
On to “EEGEGPREEGGEEAHEQRDEGRHEEREERKEERREEPVRAAVPVRAAEPAPVV”, for which the “transcriptional activation domain activity” value was found to be 23000.
Next, “TMEMAWLDMGRFFYFLFFYFLFFLLSSFFVFFYSFIYFFFSLLLFFFILWLEM”: 45900.
For the sequence “MTESHRPNQSLGLDDAAGGRKPAKRKAHRKSRTGCRQCRASRVKCDENKPSCS”, the “transcriptional activation domain activity” value is 41000.
Next, “TFVERVYTCLNYRIYKIKILGGTCALLIFVWYFPGFVLRNVLVGMLGHVVLSI”: 65400.
Next, “SNPLTSQANRMSSYDKKTNVLGFDDGTFDNKVFNRTNFEEKAPFDIPLDEFFT”: 119000.
Next, “YDILKCVLPCIVQLLPRNSPLVHCIRAYQCYRIMIGLQCMTERRLKHLQELIK”: 44800; “PVPFDPPMPVDGLGFLPGDGWMDAMDDIGPLEALDLGFLPVDFWEPHFNRQWN”: 135000.
“YDGGRLIVAIPFVCKVLEQAGRSTVFKPPNPWLMAVVRVLVELYKFAELKLNL”: the “transcriptional activation domain activity” value came to 53800.
With “SAAAAAPVAAAAAPAAASSIAPAVVGGAVGAAAIGGGAAIAASSDKAAAAAAA” the figure was 37700; with “GAQTSGPSSSAGSNNNSSSSSSEEDEPATGGSNGTQLKGKPRKTAAKRATSSG”, 35300.
With “PSIFFLLFICYFVICSIHVDLCYYDSLFNCLFFISSMFSHNYLFFCLCLCYHV” the figure was 64200; with “FDNSGFQRLESLCACLAAIKSWMDIFLKFPPLEYAHLSFTFWAQLMKCIVVLY”, 61900; with “KHLAEAGLGIAAAGAAKELYDHRKHHRSSSVSSSGGEHNHNGRHIAAAALGAT”, 28000.
Next, “MDVGIYVCICFDGLFSFGEFFYVVYTSFINHTIEFLCLFGFHFLFWVLIFFWV”: 50900; “MGLWARFICFVIVCFQITFLYCLFSCSPSFLYFQKTQPLFFTFFFSFPSFLLL”: 56800; “DSLFFDHDLLSSSITNTNNGQGSNNGRQASKDDTLNLLDTTVNSNNNHNANNE”: 32900.
Regarding “YVASQLIEIFLPEALFSVVYLSNAGKCLSREEFLVQFTFLVRLFKHEFVYPWN”, the “transcriptional activation domain activity” value worked out at 30700.
Next, “MGSGFCNGVFFYYLFFFFISLCVILSSFLLFFFSLPLFLGGLFFSTFLFLDAR”: 58900; “MVILMMGGEYGHFLGFSFYYFLHVWDGEEYYYCCGFYLSQSLLSILLCILLYL”: 55400.
With “AAQRSVMLGHNLVTLEDILMTQRKWRAVLHETFYVRWIAVLRRWLCRLLDWPV” the figure was 42900.
With “TSIRKIRAGESGGGESGGGESSGGESSGGGERGRRRRGAKEVEVRARGGGKAT” the figure was 43700.
Turning to “MFKSVFCLFSVLSFLLFHACFIYHSFFSFLFLLMMKLLLWLCATFATKWLFFC”, the “transcriptional activation domain activity” value turned out to be 69500.
With “REGEERERDGRRTSTGRRARGKGRRSRRKEGKRENRKERERKEGKEGPGQRRR” the figure was 26700; with “AAAATGSKRKADDASDEEQEEGDKEGDNNKGEKQGGEPAGKKQKQTAGVKRVV”, 27500; with “KSDAAAQVPSRGQKRDRDGDEEGSDAEAGVPGTPIRSSRKTKKRGKKSKEPRE”, 50200.
Turning to “KAGEAKTATSKGAGDEEEGTQKKKGTSSRKKATGTMGNGEVEIGNAGSSEKKK”, the “transcriptional activation domain activity” value turned out to be 36200.
